This is an account of results in article PMC6023938, “Global pairwise RNA interaction landscapes reveal core features of protein recognition”.

The data set deals with T1, TUT7 RNA-binding region (Homo sapiens, UniProt Q5VYS8 1362-1452).
T1 sequence: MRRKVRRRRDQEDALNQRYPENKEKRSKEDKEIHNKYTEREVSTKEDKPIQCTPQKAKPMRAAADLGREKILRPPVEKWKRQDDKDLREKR
Kind of data set: fluorescence polarization; FP: 45 mM Tris-HCl pH 8.0, 90 mM NaCl, 0.2% Tween-20, 22 C, 60 min, 30 ul. The conditions noted are these: protein: recombinant; tags: GST fusion (expressed in BL21 codon plus); label: 5' Cy5.

B1: top scoring Hamiltonian sequence for TUT7 (ssRNA)
RNA: GCAGUCUUAACGCUGCCUUA
Consider B1, for which the binding result is “binds”.
